System: kinases of Table 6 on Myelin Basic Protein (MBP)
Experiment: Kinase assay using MBP substrate, ProQ Diamond stain (Table 6)
Type: biochemical
Conditions: kinase printed on MBP-coated slide; 20 uM ATP, 30° C.; ProQ Diamond Microarray Stain; graded Strong/Weak/Negative
Outline: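 Bovine dephosphorylated MBP coated on aldehyde- or epoxy-glass slides, kinases printed on top; reaction buffer pH 7.5 with 4 mM MgCl2, 20 uM ATP, 5% DMSO, ± inhibitor, at 30° C. Phosphorylation detected by ProQ Diamond stain, 30 min in dark.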

Row | Molecule | MBP Kinase Activity
1 | SGK2 (protein, left off: a dimerising Fc or GST) LPDHCYRMNSSPAGTPSPQPSRANGNINLGPSANPNAQPTDFDFLKVIGKGNYGKVLLAKRKSDGAFYAVKVLQKKSILKKKEQSHIMAERSVLLKNVRHPFLVGLRYSFQTPEKLYFVLDYVNGGELFFHLQRERRFLEPRARFYAAEVASAIGYLHSLNIIYRDLKPENILLDCQGHVVLTDFGLCKEGVEPEDTTSTFCGTPEYLAPEVLRKEPYDRAVDWWCLGAVLYEMLHGLPPFYSQDVSQMYENILHQPLQIPGGRTVAACDLLQSLLHKDQRQRLGSKADFLEIKNHVFFSPINWDDLYHKRLTPPFNPNVTGPADLKHFDPEFTQEAVSKSIGCTPDTVASSSGASSAFLGFDYAPEDDDILDC | Weak
2 | SGKL(SGK3) (protein, UniProt Q96BR1 1-496, looked up) Serine/threonine-protein …: MQRDHTMDYKESCPSVSIPSSDEHREKKKRFTVYKVLVSVGRSEWFVFRRYAEFDKLYNTLKKQFPAMALKIPAKRIFGDNFDPDFIKQRRAGLNEFIQNLVRYPELYNHPDVRAFLQMDSPKHQSDPSEDEDERSSQKLHSTSQNINLGPSGNPHAKPTDFDFLKVIGKGSFGKVLLAKRKLDGKFYAVKVLQKKIVLNRKEQKHIMAERNVLLKNVKHPFLVGLHYSFQTTEKLYFVLDFVNGGELFFHLQRERSFPEHRARFYAAEIASALGYLHSIKIVYRDLKPENILLDSVGHVVLTDFGLCKEGIAISDTTTTFCGTPEYLAPEVIRKQPYDNTVDWWCLGAVLYEMLYGLPPFYCRDVAEMYDNILHKPLSLRPGVSLTAWSILEELLEKDRQNRLGAKEDFLEIQNHPFFESLSWADLVQKKIPPPFNPNVAGPDDIRNFDTAFTEETVPYSVCVSSDYSIVNASVLEADDAFVGFSYAPPSEDLFL | Weak
3 | SRPK2 (protein, left off: a dimerising Fc or GST) MSSRKVLAIQARKRRPKREKHPKKPEPQQKAPLVPPPPPPPPPPPPPLPDPTPPEPEEEILGSDDEEQEDPADYCKGGYHPVKIGDLFNGRYHVIRKLGWGHFSTVWLCWDMQGKRFVAMKVVKSAQHYTETALDEIKLLKCVRESDPSDPNKDMVVQLIDDFKISGMNGIHVCMVFEVLGHHLLKWIIKSNYQGLPVRCVKSIIRQVLQGLDYLHSKCKIIHTDIKPENILMCVDDAYVRRMAAEATEWQKAGAPPPSGSAVSTAPQQKPIGKISKNKKKKLKKKQKRQAELLEKRLQEIEELEREAERKIIEENITSAAPSNDQDGEYCPEVKLKTTGLEEAAEAETAKDNGEAEDQEEKEDAEKENIEKDEDDVDQELANIDPTWIESPKTNGHIENGPFSLEQQLDDEDDDEEDCPNPEEYNLDEPNAESDYTYSSSYEQFNGELPNGRHKIPESQFPEFSTSLFSGSLEPVACGSVLSEGSPLTEQEESSPSHDRSRTVSASSTGDLPKAKTRAADLLVNPLDPRNADKIRVKIADLGNACWVHKHFTEDIQTRQYRSIEVLIGAGYSTPADIWSTACMAFELATGDYLFEPHSGEDYSRDEDHIAHIIELLGSIPRHFALSGKYSREFFNRRGELRHITKLKPWSLFDVLVEKYGWPHEDAAQFTDFLIPMLEMVPEKRASAGECLRHPWLNS | Strong
4 | STK17A(DRAK1) (protein, left off: a dimerising Fc or GST) MIPLEKPGSGGSSPGATSGSGRAGRGLSGPCRPPPPPQARGLLTEIRAVVRTEPFQDGYSLCPGRELGRGKFAVVRKCIKKDSGKEFAAKFMRKRRKGQDCRMEIIHEIAVLELAQDNPWVINLHEVYETASEMILVLEYAAGGEIFDQCVADREEAFKEKDVQRLMRQILEGVHFLHTRDVVHLDLKPQNILLTSESPLGDIKIVDFGLSRILKNSEELREIMGTPEYVAPEILSYDPISMATDMWSIGVLTYVMLTGISPFLGNDKQETFLNISQMNLSYSEEEFDVLSESAVDFIRTLLVKKPEDRATAEECLKHPWLTQSSIQEPSFRMEKALEEANALQEGHSVPEINSDTDKSETKESIVTEELIVVTSYTLGQCRQSEKEKMEQKAISKRFKFEEPLLQEIPGEFIY | Negative
5 | STK22B(TSSK2) (protein, left off: small tags and cut ends) MDDATVLRKKGYIVGINLGKGSYAKVKSAYSERLKFNVAVKIIDRKKTPTDFVERFLPREMDILATVNHGSIIKTYEIFETSDGRIYIIMELGVQGDLLEFIKCQGALHEDVARKMFRQLSSAVKYCHDLDIVHRDLKCENLLLDKDFNIKLSDFGFSKRCLRDSNGRIILSKTFCGSAAYAAPEVLQSIPYQPKVYDIWSLGVILYIMVCGSMPYDDSDIRKMLRIQKEHRVDFPRSKNLTCECKDLIYRMLQPDVSQRLHIDEILSHSWLQPPKPKATSSASFKREGEGKYRAECKLDTKTGLRPDHRPDHKLGAKTQHRLLVVPENENRMEDRLAETSRAKDHHISGAEVGKAST | Negative
6 | STK22D(TSSK1) (protein, left off: small tags and cut ends) MDDAAVLKRRGYLLGINLGEGSYAKVKSAYSERLKFNVAIKIIDRKKAPADFLEKFLPREIEILAMLNHCSIIKTYEIFETSHGKVYIVMELAVQGDLLELIKTRGALHEDEARKKFHQLSLAIKYCHDLDVVHRDLKCDNLLLDKDFNIKLSDFSFSKRCLRDDSGRMALSKTFCGSPAYAAPEVLQGIPYQPKVYDIWSLGVILYIMVCGSMPYDDSNIKKMLRIQKEHRVNFPRSKHLTGECKDLIYHMLQPDVNRRLHIDEILSHCWMQPKARGSPSVAINKEGESSRGTEPLWTPEPGSDKKSATKLEPEGEAQPQAQPETKPEGTAMQMSRQSEILGFPSKPSTMETEEGPPQQPPETRAQ | Strong
7 | TAOK2(TAO1) (protein, left off: a dimerising Fc or GST) MPAGGRAGSLKDPDVAELFFKDDPEKLFSDLREIGHGSFGAVYFARDVRNSEVVAIKKMSYSGKQSNEKWQDIIKEVRFLQKLRHPNTIQYRGCYLREHTAWLVMEYCLGSASDLLEVHKKPLQEVEIAAVTHGALQGLAYLHSHNMIHRDVKAGNILLSEPGLVKLGDFGSASIMAPANSFVGTPYWMAPEVILAMDEGQYDGKVDVWSLGITCIELAERKPPLFNMNAMSALYHIAQNESPVLQSGHWSEYFRNFVDSCLQKIPQDRPTSEVLLKHRFVLRERPPTVIMDLIQRTKDAVRELDNLQYRKMKK | Strong
8 | TAOK3(JIK) (protein, left off: a dimerising Fc or GST) MRKGVLKDPEIADLFYKDDPEELFIGLHEIGHGSFGAVYFATNAHTSEVVAIKKMSYSGKQTHEKWQDILKEVKFLRQLKHPNTIEYKGCYLKEHTAWLVMEYCLGSASDLLEVHKKPLQEVEIAAITHGALHGLAYLHSHALIHRDIKAGNILLTEPGQVKLADFGSASMASPANSFVGTPYWMAPEVILAMDEGQYDGKVDIWSLGITCIELAERKPPLFNMNAMSALYHIAQNDSPTLQSNEWTDSFRRFVDYCLQKIPQERPTSAELLRHDFVRRDRPLRVLIDLIQRTKDAVRELDNLQYRKMKKILFQETRNGPLNESQEDEEDSEHGTSLNREMDSLGSNHSIPSMSVSTGSQSSSVNSMQEVMDESSSELVMMHDDESTINSSSSVVHKKDHVFIRDEAGHGDPRPEPRPTQSVQSQALHYRNRERFATIKSASLVTRQIHEHEQENELREQMSGYKRMRRQHQKQLIALENKLKAEMDEHRLKLQKEVETHANNSSIELEKLAKKQVAIIEKEAKVAAADEKKFQQQILAQQKKDLTTFLESQKKQYKICKEKIKEEMNEDHSTPKKEKQERISKHKENLQHTQAEEEAHLLTQQRLYYDKNCRFFKRKIMIKRHEVEQQNIREELNKKRTQKEMEHAMLIRHDESTRELEYRQLHTLQKLRMDLIRLQHQTELENQLEYNKRRERELHRKHVMELRQQPKNLKAMEMQIKKQFQDTCKVQTKQYKALKNHQLEVTPKNEHKTILKTLKDEQTRKLAILAEQYEQSINEMMASQALRLDEAQEAECQALRLQLQQEMELLNAYQSKIKMQTEAQHERELQKLEQRVSLRRAHLEQKIEEELAALQKERSERIKNLLERQEREIETFDMESLRMGFGNLVTLDFPKEDYR | Strong
9 | TTK (protein, left off: a dimerising Fc or GST) MESEDLSGRELTIDSIMNKVRDIKNKFKNEDLTDELSLNKISADTTDNSGTVNQIMMMANNPEDWLSLLLKLEKNSVPLSDALLNKLIGRYSQAIEALPPDKYGQNESFARIQVRFAELKAIQEPDDARDYFQMARANCKKFAFVHISFAQFELSQGNVKKSKQLLQKAVERGAVPLEMLEIALRNLNLQKKQLLSEEEKKNLSASTVLTAQESFSGSLGHLQNRNNSCDSRGQTTKARFLYGENMPPQDAEIGYRNSLRQTNKTKQSCPFGRVPVNLLNSPDCDVKTDDSVVPCFMKRQTSRSECRDLVVPGSKPSGNDSCELRNLKSVQNSHFKEPLVSDEKSSELIITDSITLKNKTESSLLAKLEETKEYQEPEVPESNQKQWQSKRKSECINQNPAASSNHWQIPELARKVNTEQKHTTFEQPVFSVSKQSPPISTSKWFDPKSICKTPSSNTLDDYMSCFRTPVVKNDFPPACQLSTPYGQPACFQQQQHQILATPLQNLQVLASSSANECISVKGRIYSILKQIGSGGSSKVFQVLNEKKQIYAIKYVNLEEADNQTLDSYRNEIAYLNKLQQHSDKIIRLYDYEITDQYIYMVMECGNIDLNSWLKKKKSIDPWERKSYWKNMLEAVHTIHQHGIVHSDLKPANFLIVDGMLKLIDFGIANQMQPDTTSVVKDSQVGTVNYMPPEAIKDMSSSRENGKSKSKISPKSDVWSLGCILYYMTYGKTPFQQIINQISKLHAIIDPNHEIEFPDIPEKDLQDVLKCCLKRDPKQRISIPELLAHPYVQIQTHPVNQMAKGTTEEMKYVLGQLVGLNSPNSILKAAKTLYEHYSGGESHNSSSSKTFEKKRGKK | Negative
10 | FGFR2 (protein, left off: small tags and cut ends) RMKNTTKKPDFSSQPAVHKLTKRIPLRRQVTVSAESSSSMNSNTPLVRITTRLSSTADTPMLAGVSEYELPEDPKWEFPRDKLTLGKPLGEGCFGQVVMAEAVGIDKDKPKEAVTVAVKMLKDDATEKDLSDLVSEMEMMKMIGKHKNIINLLGACTQDGPLYVIVEYASKGNLREYLRARRPPGMEYSYDINRVPEEQMTFKDLVSCTYQLARGMEYLASQKCIHRDLAARNVLVTENNVMKIADFGLARDINNIDYYKKTTNGRLPVKWMAPEALFDRVYTHQSDVWSFGVLMWEIFTLGGSPYPGIPVEELFKLLKEGHRMDKPANCTNELYMMMRDCWHAVPSQRPTFKQLVEDLDRILTLTTNEEYLDLSQPLEQYSPSYPDTRSSCSSGDDSVFSPDPMPYEPCLPQYPHINGSVKT | Strong
